Experimental findings from the supplement of paper PMC10126150 are described below.

The data set deals with ATP. In words: switch fluorescence ratio, 500 uM ATP over buffer (Cy3 cluster intensity, sum of 5 cycles each) (fold (ratio)); higher = stronger signal-on switching upon ATP binding; sequences stand for … in TCGTCGGCAGCGTCAGATGTGTATAAGAGACAGTTTTTTTTTTTTTTTTTTTTTTTTT…TC. To be noted: aptamer strand: ATP DNA aptamer (quencher-CACCTGGGGGAGTATTGCGGAGGAAGG + anchor), 100 nM annealed; ATP concentration: 500 uM. In short, it runs like this:
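Clusters carrying Cy3-labelled switching strands on a modified Illumina MiSeq flow-cell were annealed to 100 nM quencher-labelled ATP aptamer and imaged in selection buffer. They were imaged again after 15 min with 500 uM ATP at 22 °C, over five buffer/ATP cycles with NaOH stripping and re-annealing in between. For each cluster, the fluorescence ratio is the summed Cy3 intensity of the target cycles divided by that of the buffer cycles, averaged per switch-domain sequence. Clusters outside 100-1000 RFU were left out.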

± gives the standard deviation of the averaged measurements.
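Also: ATP exposure 15 min at 22 °C before imaging.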

Consider AAGGGTCGCG, for which the switch fluorescence ratio is 1.02 ± 0.055.

Turning to AAGGGTGTGT, the switch fluorescence ratio was determined as 0.961 ± 0.032. As for AAGGGTGTTT, the switch fluorescence ratio turned out to be 1.01 ± 0.034. For AAGGGTTACG, the switch fluorescence ratio came to 1 ± 0.025. As to AAGGGTTGGG, the switch fluorescence ratio came to 1.06 ± 0.058.

With AAGGTAAGGG, the switch fluorescence ratio came out at 1.01 ± 0.041. As to AAGGTACGAA, the switch fluorescence ratio turned out to be 1.04 ± 0.011. Take AAGGTATCAT: the switch fluorescence ratio stood at 0.978 ± 0.018. On to AAGGTATCGG, for which the switch fluorescence ratio was found to be 0.987 ± 0.037.

As to AAGGTATGCT, the switch fluorescence ratio was 0.982 ± 0.019. The same measure for AAGGTATTAA: 1 ± 0.036. In the case of AAGGTATTGC, the switch fluorescence ratio was found to be 0.9947 ± 0.0061.

AAGGTCGGTA: the switch fluorescence ratio was found to be 1.001 ± 0.0024. The same measure for AAGGTCGTCG: 0.9834 ± 0.0076; for AAGGTGAATC: 1.04 ± 0.019. In the case of AAGGTGGCCC it was 1.03 ± 0.023; in that of AAGGTGTGCC, 1.01 ± 0.03.

With AAGGTTAGTT, the switch fluorescence ratio stood at 1.003 ± 0.0083. In the case of AAGGTTATGT it was 0.991 ± 0.02; in that of AAGGTTATTA, 1 ± 0.023; in that of AAGGTTGCGA, 0.9571 ± 0.0024.

Regarding AAGGTTGGGG, the switch fluorescence ratio was 0.994 ± 0.017.

AAGGTTTAAG: the switch fluorescence ratio worked out at 0.999 ± 0.011.

For the sequence AAGGTTTCAG, the switch fluorescence ratio is 0.9758 ± 0.0079. Turning to AAGGTTTTTC, the switch fluorescence ratio was 1.01 ± 0.015.

Turning to AAGTAAGTGG, the switch fluorescence ratio is 1.03 ± 0.042. Turning to AAGTAATAGG, the switch fluorescence ratio is 1.03 ± 0.019.

Consider AAGTAATTTC, for which the switch fluorescence ratio amounted to 1.02 ± 0.013.

In the case of AAGTACGGAG, the switch fluorescence ratio was determined as 1.04 ± 0.052. Turning to AAGTACGTTG, the switch fluorescence ratio is 1.12 ± 0.057. In the case of AAGTAGGAGC it was 1.06 ± 0.19; in that of AAGTAGGCTC, 0.991 ± 0.007; in that of AAGTAGGGGG, 0.951 ± 0.016. In the case of AAGTAGTAGT it was 1.007 ± 0.0043. Turning to AAGTAGTCGA, the switch fluorescence ratio worked out at 0.9838 ± 0.0041. With AAGTAGTTAC, the switch fluorescence ratio worked out at 1.05 ± 0.042. The same measure for AAGTATAGCA: 1.03 ± 0.014; for AAGTATAGTT: 1.04 ± 0.056; for AAGTATCCGT: 0.986 ± 0.048. In the case of AAGTATGTAT, the switch fluorescence ratio worked out at 1.02 ± 0.041.

AAGTATTATC: the switch fluorescence ratio was found to be 1.01 ± 0.019. Consider AAGTCAATGT, for which the switch fluorescence ratio amounted to 1.015 ± 0.0027. In the case of AAGTCACATC it was 1.22 ± 0.19. The same measure for AAGTCAGGAG: 1.05 ± 0.07; for AAGTCCCGCT: 1.12 ± 0.17.

Regarding AAGTCGGCTG, the switch fluorescence ratio was 0.9757 ± 0.002. The same measure for AAGTCGGTTA: 1 ± 0.02; for AAGTCTTGTT: 0.97636 ± 0.00051.

For the sequence AAGTCTTTTC, the switch fluorescence ratio turned out to be 0.975 ± 0.036.

Consider AAGTGAAAGC, for which the switch fluorescence ratio was determined as 1.01 ± 0.068. Take AAGTGAAGCT: the switch fluorescence ratio turned out to be 1 ± 0.015. For AAGTGAGTAG, the switch fluorescence ratio came to 1.004 ± 0.01.

In the case of AAGTGATTGG, the switch fluorescence ratio came out at 0.973 ± 0.011. In the case of AAGTGCAAAC, the switch fluorescence ratio was determined as 1.53 ± 0.73.

In the case of AAGTGCCCCA, the switch fluorescence ratio is 1.05 ± 0.016. The same measure for AAGTGCGGCC: 0.987 ± 0.011. The same measure for AAGTGGGCCT: 0.981 ± 0.038; for AAGTGGGGCG: 1.02 ± 0.034.

For the sequence AAGTGGGGGG, the switch fluorescence ratio came to 1 ± 0.024. In the case of AAGTGTATCA it was 0.983 ± 0.02; in that of AAGTGTGCGA, 0.997 ± 0.028; in that of AAGTGTTTTA, 1.001 ± 0.0045. In the case of AAGTTAAAAT, the switch fluorescence ratio was 1.012 ± 0.0074.

Regarding AAGTTAACTT, the switch fluorescence ratio came to 0.9883 ± 0.0087. Regarding AAGTTAATGT, the switch fluorescence ratio was determined as 1 ± 0.022. The same measure for AAGTTAGGGG: 0.9756 ± 0.0084; for AAGTTCAGTT: 1.01 ± 0.016.

Regarding AAGTTCGAGA, the switch fluorescence ratio was 1.002 ± 0.0016. As for AAGTTCGGGG, the switch fluorescence ratio turned out to be 1.05 ± 0.088.

With AAGTTCGTGC, the switch fluorescence ratio was 1.02 ± 0.058.

Consider AAGTTGAATT, for which the switch fluorescence ratio stood at 0.99 ± 0.029. In the case of AAGTTGAGGG it was 0.975 ± 0.035. The same measure for AAGTTGCGCT: 1 ± 0.034; for AAGTTGCGGG: 0.964 ± 0.078; for AAGTTGCGTT: 1.01 ± 0.015. AAGTTGCTGG: the switch fluorescence ratio was 0.985 ± 0.019. In the case of AAGTTGGATG it was 0.977 ± 0.019. In the case of AAGTTGGGGA it was 0.996 ± 0.021.
